Experimental data from paper PMC3057995, “Potent Anti-Tumor Effect Generated by a Novel Human Papillomavirus (HPV) Antagonist Peptide Reactivating the pRb/E2F Pathway” (PLoS ONE, 2011).
Bridge positions count the residues as written; N and C are the ends. Ends that are not written are not given here.

Experiments:
SiHa cells = test system: SiHa cells
Protocol: The 5-FAM labeled peptides were used to monitor the cell uptake and intracellular location of the peptide. SiHa cells were seeded on the coverslips in 12-well plates (1×10^5/well) and cultured overnight. The DMEM was replaced with a fresh medium, supplemented with 80 µM 5-FAM labeled peptide. Cells were washed three times with a PBS buffer after 8 h and 24 h of incubation, respectively, and then observed under a fluorescence microscope Leica DMI 6000B. Images were captured with Leica AF6500 software (Leica Mikrosysteme Vertrieb GmbH, Wetzlar, Germany).

[1] = molecular target: T1, His-HPV16E7 fusion protein (human papillomavirus type 16, UniProt P03129 1-98); experiment: ELISA
T1 construct: source: E. coli BL21, extracted in denaturing conditions, purified (Ni-NTA agarose)
T1 sequence (looked up): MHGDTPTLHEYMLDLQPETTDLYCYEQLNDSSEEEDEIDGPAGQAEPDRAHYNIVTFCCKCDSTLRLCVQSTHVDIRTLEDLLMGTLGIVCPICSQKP

Molecule: O=C(O)c1ccc2c(c1)C(=O)OC21c2ccc(O)cc2Oc2cc(O)ccc21 [5-Fam]
- cell fluorescence (uptake control) (SiHa cells): did not show fluorescence

Molecule: positive phage clones displaying the peptide PKGLDWC
- inhibitory ratio of HPV16E7 mAb binding at 10^13 CFU/ml [1]: > 50%

B1: Pep-7 (peptide)
peptide: SACPKGLDWCGG
modifications: disulfide 3-10 (inferred)
notes: also called selected peptide; antagonist peptide; source: synthetic peptide (Chinese Peptide Company), HPLC purified
- binding result ([1]; both partners purified): binds
